Test results reported in paper PMC3409459, “Absorption, distribution, metabolism and excretion of peginesatide, a novel erythropoiesis-stimulating agent, in rats” (Xenobiotica; the Fate of Foreign Compounds in Biological …, 2011).

Tests used:
[1] = In vivo metabolite profiling, plasma and tissues at 14 days; design: species or system male Sprague-Dawley rats; settings: rat, iv, 5 mg/kg
Experimental: The metabolite profiling in the biological samples from rats dosed with [^14C]-peginesatide was performed by high-performance liquid chromatography (HPLC). The radiolabeled materials in the samples of plasma and aqueous homoge-nates of tissues and feces were extracted with five volumes of methanol containing 0.1% of trifluoroacetic acid (TFA), mixed and centrifuged at 1500g at 4°C for l0 min to obtain supernatant. A portion of the supernatant was counted to estimate the extraction recovery of [^14C]-peginesatide and its related compounds in the biological samples. The rest of the supernatant was evaporated to dryness under a nitrogen gas stream. The residue was re-dissolved in a small volume of equal parts mobile phase [MP(A)] and B [MP(B)] for chromatographic analysis. The HPLC system (Simadzu, Kyoto, Japan) consisted of a LC-lOADvp pump, a CTO-lOACvp column oven, an SPD-lOAvp UV detector, and an SCL-lOAvp system controller. […] A mixture of 0.1% TFA aqueous solution and 0.1% TFA in methanol solution were used for MP(A) and MP(B), respectively. The flow rate was 0.5mL/min, and the peaks were monitored by a UV absorption detector at 215 run. The time for the gradient elution was as follows: the concentration of MP(B) was increased from 50 to 80% and from 80 to 83% over a period of 2-10min and 10-20min, respectively. […] The effluentwas collected into 0.5mL size fractions, followed by counting of the radioactivity (LSC). Under these conditions unchanged peginesatide and mono-PEG eluted at approximately 22 and 10 min, respectively.
A single dose of [^14C]-peginesatide at 5 mg·kg^−1 was administered to male Sprague-Dawley rats (n = 9) by IV injection. At 14 days after dosing, animals were euthanized and samples of plasma, liver, spleen, kidneys, testes, and bone marrow were collected. Plasma and tissue extract samples were analyzed for levels of total radioactivity, peginesatide, and potential metabolites using LSC. Tissue homogenates (prepared in saline at a concentration of 20% [w/v] for the liver, kidneys and testes and 10% [w/v] for the spleen and bone marrow) were analyzed for radioactivity by LSC following combustion. The concentration of radioactivity in the blood, plasma, and tissues was calculated and expressed as ug equiv·g^-1 or mL based on the LSC counts and the specific activity of the dosing solution.

[2] = Quantitative whole body autoradiography (QWBA) tissue distribution; format: in vivo, male Sprague-Dawley rats; settings: for the radiolabel distribution and QWBA studies
Experimental: Tissue distribution of radioactivity was assessed by quantitative whole-body autoradiography (QWBA) in addition to determination of radioactivity tissue levels by LSC. At various time points following the administration of the desired QWBA target dose of 100 uCi/kg [^14C]-peginesatide, equating to a 17mg/kg dose of peginesatide, the rats were anesthetized with isoflurane and blood (−3-4 mL) was collected via cardiac puncture. Anesthetized rats were sacrificed by immersion in a hexane dryicebath. Carcasseswere embedded in 2% carboxymethylceilulose over solid CO2 to ensure the block was retained frozen, and then stored at −20°C until sectioning. In addition, ^14C radioactivity standards were embedded with each carcass to provide a context for quantification and for quality control purposes.
Samples were sectioned onto adhesive tape (Nakagawa NA-70 MAG, Japan) at five levels of interest in the sagittal plane, with all major tissues, organs, and biological fluids represented. […] To quantitate radioactivity in tissues, a calibration standard curve was constructed using American Radiolabeled Chemicals, Inc ARC 146 standards. The autoradiographic image data for the calibration standards and specified tissues, organs, and fluids were quantified using Imaging Research Inc. AIS software. […]

[3] = Mass balance study (urine, feces, expired air, carcass); settings: initial 3 days after dosing; single IV 5 mg·kg^−1
Source text: Radioactivity in diluted formulations, plasma, urine, and expired air (CO2-absorbent solution) was quantitated by mixingwith liquid scintillator Hionic-Fluor (PerkinElmer Life and Analytical Sciences) followed by liquid scintillation counting (LSC). Solid samples were homogenized (10 or 20% w/v in distilled water) before combustion in a sample oxidizer (A030701; PerkinElmer Life and Analytical Sciences) with Carbo-Sorb E (PerkinElmer Life and Analytical Sciences) as a carbon dioxide absorbent and Permafluor E^+ (PerkinElmer Life and Analytical Sciences) as a liquid scintillator. Total captured radioactivity was subsequently measured via LSC.
Urine and feces were collected at 24-h intervals up to 14 days after dosing and expired air was collected up to 24 h after dosing. The levels of radioactivity in urine and expired air were measured by LSC and in feces by LSC following combustion. After the final collection of excreta at 2 weeks, the animals were sacrificed and the carcasses were dissolved in potassium hydroxide/distilled water/ethanol (3:3:7, w/v/v), and examined for residual radioactivity by LSC.

[4] = Plasma total radioactivity pharmacokinetics after single IV [^14C]-peginesatide (LSC); format: in vivo, male Sprague-Dawley rats; settings: single 5 mg-kg^-1 IV [^14C]-peginesatide, n=3
Experimental: Total captured radioactivity was subsequently measured via LSC.
The plasma samples were analyzed for total radioactivity using LSC.
Noncompartmental PK parameters for peginesatide and metabolites were generated using WinNonlin ver. 4.0, Pharsight Corporation (Mountain View, CA). The maximum plasma concentration (Cmax) and their times of occurrence (tmax) were obtained directly from the mean plasma concentration vs. time profiles. The areas under the plasma concentration-time curves […] were estimated by the linear trapezoidal rule - by adding all the area portions under the curve from time zero to the time of the last observed plasma concentration (tn). Elimination rate constants (kz) were estimated by fitting a linear regression of log mean concentration against time data in the terminal exponential phase (at least 3 data points). Apparent terminal half-life (t1/2) was calculated as In2/λz. The AUC0-inf was calculated as the sum of AUC0-t and Cobs/λz, where Cobs, was the actual concentration at the time of the last quantifiable concentration. The plasma clearance (CL) for peginesatide was estimated as the ratio of dose/ AUC0-inf. The mean residence time (MRT) was calculated as the ratio of AUMC0-inf/AUC0-inf, where AUMC0-inf was the area under the first moment curve from the time zero to infinity. The volume of distribution at steady state (Vss) was estimated as CL x MRT.

## Peginesatide
[1]
  Day 14 concentration, Bone marrow: 3.22 μg equiv·g^−1 or mL
  Day 14 concentration, Liver: 5.63 μg equiv·g^−1 or mL
  Day 14 concentration, Plasma: 1.94 μg equiv·g^−1 or mL
  Day 14 concentration, Spleen: 14.3 μg equiv·g^−1 or mL
  Day 14 concentration, Testes: 2.68 μg equiv·g^−1 or mL
  percent radioactivity, Bone marrow, Day 14: 58.2%
  percent radioactivity, Kidneys, Day 14: 54.1%
  percent radioactivity, Liver, Day 14: 63.2%
  percent radioactivity, Spleen, Day 14: 61.2%
  percent radioactivity, Testes, Day 14: 66.0%
  share of total tissue radioactivity across liver, spleen, kidney, testes and bone marrow: 54-66%
[2]
  bone marrow to bone ratios: 11-25
[3]
  fecal recovery of the total radioactive dose: 5 % of the total radioactive dose
  urinary recovery of the total radioactive dose: 23 % of the total radioactive dose
[4]
  Cmax, total radioactivity: 150 ug equiv·mL^−1
